Data taken from publication PMC11554844, “BEACH domain proteins function as cargo-sorting adaptors in secretory and endocytic pathways” (The Journal of Cell Biology, 2024).

Experiments:
Experiment in all cases: pull-down; GST-CTLA4 (201–215) immobilised on glutathione-sepharose beads, incubated overnight at 4°C with purified protein (1 µg MBP fusion, 1 µg NBEAL2, 0.2 µg LRBA, or purified 3xFlag-EGFP-NBEAL2 fragment); washed six times in 50 mM Tris-HCl pH 7.4, 150 mM NaCl, 1% Triton X-100; detected by blot (anti-NBEAL2, anti-LRBA, anti-Flag, anti-MBP)
Conditions in all cases: both partners purified
[1] = biological target: T1, Purified full-length untagged NBEAL2 (human, UniProt Q6ZNJ1-1 1-2754)
T1 construct: NBEAL2, human; also called 3xFlag-EGFP-SUMOstar-NBEAL2 after SUMOstar protease; source: FreeStyle 293-F, transiently transfected, purified (GFP-Trap agarose, eluted with SUMOstar protease); not shown: 3xFlag, N-terminal, cleaved; EGFP, N-terminal, cleaved; SUMOstar, N-terminal, cleaved
T1 sequence (Q6ZNJ1 whole entry): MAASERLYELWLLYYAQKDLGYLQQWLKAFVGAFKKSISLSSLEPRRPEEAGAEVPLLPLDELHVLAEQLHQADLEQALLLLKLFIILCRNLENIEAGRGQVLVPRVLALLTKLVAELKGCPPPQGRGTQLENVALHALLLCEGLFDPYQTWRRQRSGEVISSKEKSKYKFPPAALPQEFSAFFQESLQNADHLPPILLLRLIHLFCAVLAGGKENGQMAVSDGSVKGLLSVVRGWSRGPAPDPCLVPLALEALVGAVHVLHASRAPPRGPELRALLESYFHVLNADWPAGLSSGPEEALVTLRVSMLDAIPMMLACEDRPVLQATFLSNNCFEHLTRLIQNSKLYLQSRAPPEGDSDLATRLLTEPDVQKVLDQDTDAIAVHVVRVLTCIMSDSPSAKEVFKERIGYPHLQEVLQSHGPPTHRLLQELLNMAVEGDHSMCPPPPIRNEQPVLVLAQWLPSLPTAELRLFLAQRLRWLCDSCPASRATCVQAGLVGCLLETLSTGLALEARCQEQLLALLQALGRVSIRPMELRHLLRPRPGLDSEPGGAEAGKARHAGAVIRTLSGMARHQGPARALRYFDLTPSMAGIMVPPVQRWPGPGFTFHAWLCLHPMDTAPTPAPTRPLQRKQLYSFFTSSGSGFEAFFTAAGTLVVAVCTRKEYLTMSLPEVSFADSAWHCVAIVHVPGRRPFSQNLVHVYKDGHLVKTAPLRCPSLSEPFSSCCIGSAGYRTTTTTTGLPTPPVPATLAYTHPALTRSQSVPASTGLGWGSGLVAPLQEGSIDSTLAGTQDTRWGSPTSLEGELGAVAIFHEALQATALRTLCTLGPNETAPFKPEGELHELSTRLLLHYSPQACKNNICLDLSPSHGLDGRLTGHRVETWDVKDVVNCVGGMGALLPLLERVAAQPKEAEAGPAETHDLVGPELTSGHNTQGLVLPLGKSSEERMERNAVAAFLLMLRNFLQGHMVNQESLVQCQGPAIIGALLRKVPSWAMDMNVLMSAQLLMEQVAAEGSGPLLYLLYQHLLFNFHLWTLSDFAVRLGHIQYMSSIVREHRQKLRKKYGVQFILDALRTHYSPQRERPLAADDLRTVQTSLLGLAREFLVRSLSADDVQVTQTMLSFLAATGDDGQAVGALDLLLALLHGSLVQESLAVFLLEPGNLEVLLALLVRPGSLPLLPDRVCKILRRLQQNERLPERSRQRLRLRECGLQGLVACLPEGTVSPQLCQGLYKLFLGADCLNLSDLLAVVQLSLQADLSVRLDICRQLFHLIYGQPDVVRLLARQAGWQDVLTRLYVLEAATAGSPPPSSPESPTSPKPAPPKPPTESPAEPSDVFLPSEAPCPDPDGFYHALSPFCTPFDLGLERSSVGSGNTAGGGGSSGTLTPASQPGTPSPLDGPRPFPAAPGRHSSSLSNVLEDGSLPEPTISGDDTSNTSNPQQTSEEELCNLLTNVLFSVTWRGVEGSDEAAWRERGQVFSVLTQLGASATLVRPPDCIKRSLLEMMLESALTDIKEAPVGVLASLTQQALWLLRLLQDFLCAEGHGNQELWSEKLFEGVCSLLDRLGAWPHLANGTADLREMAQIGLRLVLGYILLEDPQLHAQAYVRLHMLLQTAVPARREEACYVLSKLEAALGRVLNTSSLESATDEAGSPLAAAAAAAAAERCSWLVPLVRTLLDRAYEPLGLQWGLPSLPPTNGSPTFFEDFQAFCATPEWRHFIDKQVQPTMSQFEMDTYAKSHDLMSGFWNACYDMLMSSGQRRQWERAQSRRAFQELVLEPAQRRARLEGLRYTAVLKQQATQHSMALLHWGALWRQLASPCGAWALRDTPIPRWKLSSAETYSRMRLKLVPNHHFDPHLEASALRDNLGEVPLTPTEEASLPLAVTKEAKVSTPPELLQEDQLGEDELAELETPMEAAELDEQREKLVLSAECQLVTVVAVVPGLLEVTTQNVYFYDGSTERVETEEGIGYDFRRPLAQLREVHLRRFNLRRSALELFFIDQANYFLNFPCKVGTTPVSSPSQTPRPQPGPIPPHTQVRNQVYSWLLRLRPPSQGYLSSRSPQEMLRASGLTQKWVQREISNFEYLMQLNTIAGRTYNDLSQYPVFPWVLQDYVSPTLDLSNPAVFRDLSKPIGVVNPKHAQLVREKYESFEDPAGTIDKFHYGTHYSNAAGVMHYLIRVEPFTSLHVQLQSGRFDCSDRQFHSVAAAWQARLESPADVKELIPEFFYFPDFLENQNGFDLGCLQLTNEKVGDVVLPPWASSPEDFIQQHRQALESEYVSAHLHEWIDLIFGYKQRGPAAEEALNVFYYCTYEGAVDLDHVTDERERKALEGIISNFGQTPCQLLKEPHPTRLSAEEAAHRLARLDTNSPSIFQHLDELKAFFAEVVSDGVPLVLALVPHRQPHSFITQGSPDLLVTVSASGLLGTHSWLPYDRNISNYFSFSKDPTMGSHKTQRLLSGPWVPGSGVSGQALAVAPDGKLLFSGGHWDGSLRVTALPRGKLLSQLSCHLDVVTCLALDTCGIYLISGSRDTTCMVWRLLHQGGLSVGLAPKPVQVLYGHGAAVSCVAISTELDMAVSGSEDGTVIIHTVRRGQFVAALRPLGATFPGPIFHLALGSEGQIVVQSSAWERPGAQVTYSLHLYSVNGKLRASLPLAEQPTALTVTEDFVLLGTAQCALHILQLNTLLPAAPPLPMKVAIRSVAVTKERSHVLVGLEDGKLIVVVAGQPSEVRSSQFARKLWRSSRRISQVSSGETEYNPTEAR

[2] = biological target: T2, Purified full-length untagged LRBA (human, UniProt P50851-1 1-2863)
T2 construct: LRBA, human; also called 3xFlag-EGFP-SUMOstar-LRBA after SUMOstar protease; source: FreeStyle 293-F, transiently transfected, purified (GFP-Trap agarose, eluted with SUMOstar protease); not shown: 3xFlag, N-terminal, cleaved; EGFP, N-terminal, cleaved; SUMOstar, N-terminal, cleaved

[3] = biological target: T3, 3xFlag-EGFP-NBEAL2(1792-2754) (human, UniProt Q6ZNJ1-1 1792-2754)
T3 construct: NBEAL2, human, C-terminal fragment with the PH-BEACH-WD40 domains; The legend's upper limit 2794 differs from the plasmid's name; also called C-terminal fragment of NBEAL2; C-terminal (PH-BEACH-WD40 domains) fragment of NBEAL2; source: purified; not shown: 3xFlag, N-terminal, kept; EGFP, N-terminal, kept
T3 sequence (Q6ZNJ1 1792-2754): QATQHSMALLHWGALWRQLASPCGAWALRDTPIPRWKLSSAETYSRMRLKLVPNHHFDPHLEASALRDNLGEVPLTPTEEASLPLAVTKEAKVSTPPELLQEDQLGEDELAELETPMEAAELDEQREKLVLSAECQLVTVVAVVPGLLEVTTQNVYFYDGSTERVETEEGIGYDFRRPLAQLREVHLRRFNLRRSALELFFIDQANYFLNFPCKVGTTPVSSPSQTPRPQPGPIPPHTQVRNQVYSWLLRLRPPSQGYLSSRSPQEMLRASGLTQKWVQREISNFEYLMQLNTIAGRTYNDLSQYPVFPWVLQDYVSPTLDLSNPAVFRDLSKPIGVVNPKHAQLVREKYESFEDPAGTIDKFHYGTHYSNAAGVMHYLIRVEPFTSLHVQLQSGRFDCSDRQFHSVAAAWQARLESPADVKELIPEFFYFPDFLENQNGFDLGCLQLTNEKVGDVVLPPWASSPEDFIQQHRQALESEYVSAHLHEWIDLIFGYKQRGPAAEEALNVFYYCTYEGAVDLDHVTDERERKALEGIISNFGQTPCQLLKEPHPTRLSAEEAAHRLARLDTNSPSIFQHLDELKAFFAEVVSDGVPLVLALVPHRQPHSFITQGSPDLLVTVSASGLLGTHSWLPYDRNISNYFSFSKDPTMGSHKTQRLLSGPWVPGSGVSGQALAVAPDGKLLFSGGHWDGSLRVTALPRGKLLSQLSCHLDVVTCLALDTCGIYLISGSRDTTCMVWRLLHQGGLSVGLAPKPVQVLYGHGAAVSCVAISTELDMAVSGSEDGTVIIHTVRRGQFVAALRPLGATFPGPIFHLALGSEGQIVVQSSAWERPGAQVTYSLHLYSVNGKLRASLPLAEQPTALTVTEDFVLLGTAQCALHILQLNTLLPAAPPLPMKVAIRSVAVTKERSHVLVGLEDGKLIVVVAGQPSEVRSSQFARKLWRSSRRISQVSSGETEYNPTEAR

Measured: binding result

B1: GST-CTLA4 (201–215) (domain or fragment, human, UniProt P16410 201-215, looked up)
chain: YVKMPPTEPECEKQF
notes: source: E. coli BL21(DE3), purified on Glutathione Sepharose 4B beads
binds: all assays above
